# According to patent US20250188180A1 (BIOINTRON BIOLOGICAL, published 2025):
# Where a chain is given by its changes, count along the chain named.
# B1: ANb24-Alpaca1-4M-2SP-317 (Fc fusion)
# chain: QLQLVESGGDLVQPGGSLRLSCTASGHTLEYYAIGWFRQAPGKEREGVSCIIGSGGSTRYFDSVLGRFTISRDNAKNTVFLQMNSLKPEDTAVYYCAKVRLLSRLCVPSSDFDSWGQGTQVTVSS
# notes: also called ANb24-A1-4M-2SP-317; ANb24-Alpacal-4M-2SP-317; not shown: Fc joined to the VHH by overlap PCR
# B2: ANb24-Alpaca1-4M-2SP-332 (Fc fusion)
# chain: QVQLVESGGGLVQPGGSLRLSCAASGSTLASYAIGWFRQAPGKEREGISCISGSGGSTRAADSVQGRFTISRDNAKNTVSLQMNSLKPEDTAIYYCAKVRLLSRGCVPSPDFDSWGQGTQVTVSS
# notes: also called ANb24-A1-4M-2SP-332; ANb24-Alpacal-4M-2SP-332; not shown: Fc joined to the VHH by overlap PCR
# B3: ANb24-Alpaca1-4M-2SP-175 (Fc fusion)
# chain: QPHFVESGGGLVQPGGSLRLSCVASGFTFEYVPIGWFRQAPGKEREGVSCITPTGITRNADSVKGRFTISRDNAKNTVYLQLNSLKPEDTAVYYCAKARLLSTSCVQTSDARGQGTQVTVSS
# notes: also called ANb24-A1-4M-2SP-175; ANb24-Alpacal-4M-2SP-175; not shown: Fc joined to the VHH by overlap PCR
# B4: ANb24-Alpaca1-4M-2SP-149 (Fc fusion)
# chain: EVQLVESGGGLVQPGGSLRLSCTASGSTLDIYAIGWFRQAPGKEREGVSCITGSGSSTRYAHSVTGRFTISRDNAKNTVFLQMNSLKPEDTAVYYCAKARLLSRLCVPSPDFESWGQGTQVTVSS
# notes: also called ANb24-A1-4M-2SP-149; ANb24-Alpacal-4M-2SP-149; not shown: Fc joined to the VHH by overlap PCR
# B5: ANb24-Alpaca1-4M-2SP-273 (Fc fusion)
# chain: EVQLVESGGGLVQPGGSLRLSCAASGSTLDYYAIGWFRQAPGKEREGVSCISGSGGSTRYADSVTGRFTISKDSAKNTVYLEMNSLKPEDTAVYYCARARLLSRLCVPSADFDSWGQGTQVTVSS
# notes: also called ANb24-A1-4M-2SP-273; ANb24-Alpacal-4M-2SP-273; not shown: Fc joined to the VHH by overlap PCR
# B6: ANb24-Alpaca1-4M-2SP-180 (Fc fusion)
# chain: B4 chain with E1Q, V2P, L4F, H62D, E89D, R104M
# notes: also called ANb24-A1-4M-2SP-180; ANb24-Abpacal-4M-2SP-180; not shown: Fc joined to the VHH by overlap PCR
# B7: ANb24-Alpaca1-4M-2SP-335 (Fc fusion)
# chain: QPQFVESGGGLVQPGGTLRLSCAASGFTFEYYTIGWFRQTPGKEREGVSCITAAGVPRNADSAKGRFTISRDNAKNMVYLQMNNLKPEDTAVYYCAQARLLSTSCAPMNDYWGQGTQVTVSS
# notes: also called ANb24-A1-4M-2SP-335; ANb24-Alpacal-4M-2SP-335; not shown: Fc joined to the VHH by overlap PCR
# B8: ANb24-Alpaca1-4M-2SP-226 (Fc fusion)
# chain: QLQLVESGGGLVQPGGTLRLSCAASGVTLEYYSIGWFRQSPGKEREGVSCISGGGVQRYADSAEGRFAISRDNAKNMVYLQMNNLEPEDTAVYYCARARLLMRGCAPMDNYWGQGTQVTVSS
# notes: also called ANb24-A1-4M-2SP-226; ANb24-Alpacal-4M-2SP-226; not shown: Fc joined to the VHH by overlap PCR
# Target: CD40 antigen on cells (cell-based binding assay) (UniProt P25942)
# Assay: cell-based binding assay on CD40 cells
# CD40 antigen on cells (cell-based binding assay) (UniProt P25942), sequence (P25942 21-277 limits assumed): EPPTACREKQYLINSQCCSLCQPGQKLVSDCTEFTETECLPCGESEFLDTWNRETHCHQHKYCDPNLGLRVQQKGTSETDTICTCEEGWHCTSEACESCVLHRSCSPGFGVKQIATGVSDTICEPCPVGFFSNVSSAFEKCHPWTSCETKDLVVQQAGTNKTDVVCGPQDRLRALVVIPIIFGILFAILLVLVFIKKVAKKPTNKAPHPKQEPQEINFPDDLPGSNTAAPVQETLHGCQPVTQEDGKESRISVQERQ
row,X Mean,Molecule
1,10700,anti-CD40/APX005M (control antibody)

# Target: T1, CD40 antigen on cells (cell-based binding assay) (UniProt P25942 21-277, limits assumed)
# T1 construct: whole, on cells; the cells are not described
# Assay: cell-based binding assay, 293F culture supernatant
# T1 sequence (P25942 21-277 limits assumed): as above
row,X Mean,Molecule
1,8970,B1
2,4080,B2
3,10500,B3
4,11500,B4
5,4420,B5
6,10800,B6
7,8960,B7
8,10700,B8
